According to patent publication US20040127421:

Columns and labels:
[1] = tested on: 10-mer (SEQ ID NO:13) NYNFFPRKPK
[2] = tested on: 19-mer (SEQ ID NO:11) PRCGNPDVANYNFFPRKPK
[3] = tested on: 9-mer (SEQ ID NO:12) PRCGNPDVA

Sequence of Active MMP-9 enzyme (chain, as listed by the source): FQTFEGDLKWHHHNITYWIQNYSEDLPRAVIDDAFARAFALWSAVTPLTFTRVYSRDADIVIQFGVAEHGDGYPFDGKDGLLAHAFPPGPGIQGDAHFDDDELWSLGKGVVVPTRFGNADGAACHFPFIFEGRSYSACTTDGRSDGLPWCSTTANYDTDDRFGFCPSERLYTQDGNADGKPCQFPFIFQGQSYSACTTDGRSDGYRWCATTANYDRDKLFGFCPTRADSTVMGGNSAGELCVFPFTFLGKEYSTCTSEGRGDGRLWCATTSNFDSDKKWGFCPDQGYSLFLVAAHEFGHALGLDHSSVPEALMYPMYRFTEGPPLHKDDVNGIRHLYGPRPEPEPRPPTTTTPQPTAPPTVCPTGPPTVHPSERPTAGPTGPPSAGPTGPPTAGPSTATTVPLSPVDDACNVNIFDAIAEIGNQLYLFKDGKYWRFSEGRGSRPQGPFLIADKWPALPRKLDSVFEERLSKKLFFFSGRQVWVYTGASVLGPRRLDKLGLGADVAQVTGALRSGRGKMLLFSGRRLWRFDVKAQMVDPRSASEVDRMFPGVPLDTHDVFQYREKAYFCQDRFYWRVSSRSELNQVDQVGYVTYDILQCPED

## Active MMP-9 enzyme
[1]
  extended time course of MMP-9 catalyzed hydrolysis of collagen: The 10-mer is less effective at preventing the destruction of collagen at long time points (FIG. 9) than is the 9-mer (FIG. 10)
[2]
  extended time course of MMP-9 catalyzed hydrolysis of collagen: the 19-mer effectively inhibits the MMP-9 catalyzed hydrolysis of collagen to beyond 1000 minutes
[3]
  extended time course of MMP-9 catalyzed hydrolysis of collagen: The 10-mer is less effective at preventing the destruction of collagen at long time points (FIG. 9) than is the 9-mer (FIG. 10)
